For the experiment, the system named is A549 cells. As to the kind of experiment: MTT cell viability, A549. Conditions: AChE-ID media, 48 h, A549; Fig. 7A. The class given is cell-based, human. The procedure: Human NSCLC cell lines, A549 (ATCC CCL‐185) and H1299 (ATCC CRL‐5803), were purchased from the American Type Culture Collection (ATCC, Manassas, VA, USA). Cells were seeded as we reported earlier in 5 mL HyClone Dulbecco's modified Eagle's medium/nutrient mixture F‐12 (DMEM/F12) (GE Healthcare Life Sciences, Pittsburgh, PA, USA), supplemented with 10% Fetalgro bovine growth serum (FBS; RMBIO, Missoula, MT, USA), 50 U·mL^−1 penicillin, and […] streptomycin (Invitrogen, Life Technologies, Carlsbad, CA, USA) in 25‐cm^2 tissue culture flasks, and allowed to grow overnight in an incubator at 37 °C, 95% humidity, and 5% CO2. The cells were counted after trypan blue staining, with a hemocytometer.
The 3‐(4,5‐dimethylthiazol‐2‐yl)‐2,5‐diphenyl‐tetrazolium bromide (MTT) reduction assay (Sigma‐Aldrich), used to measure cell viability, was carried out as we reported earlier. […] The absorbance was measured at 570 nm in a plate reader. […]
Conditioned media were immunodepleted (ID) according to the methods previously described and our recently published report. […] The ID media were then carefully removed and analyzed for the presence of the target protein or peptide by ELISA. The same amount of protein (3 µL of 600 µg·mL^−1 total protein) of each sample was analyzed in the experiments. […]

B1: acetylcholinesterase (protein)
chain: EGREDAELLVTVRGGRLRGIRLKTPGGPVSAFLGIPFAEPPMGPRRFLPPEPKQPWSGVVDATTFQSVCYQYVDTLYPGFEGTEMWNPNRELSEDCLYLNVWTPYPRPTSPTPVLVWIYGGGFYSGASSLDVYDGRFLVQAERTVLVSMNYRVGAFGFLALPGSREAPGNVGLLDQRLALQWVQENVAAFGGDPTSVTLFGESAGAASVGMHLLSPPSRGLFHRAVLQSGAPNGPWATVGMGEARRRATQLAHLVGCPPGGTGGNDTELVACLRTRPAQVLVNHEWHVLPQESVFRFSFVPVVDGDFLSDTPEALINAGDFHGLQVLVGVVKDEGSYFLVYGAPGFSKDNESLISRAEFLAGVRVGVPQVSDLAAEAVVLHYTDWLHPEDPARLREALSDVVGDHNVVCPVAQLAGRLAAQGARVYAYVFEHRASTLSWPLWMGVPHGYEIEFIFGIPLDPSRNYTAEEKIFAQRLMRYWANFARTGDPNEPRDPKAPQWPPYTAGAQQYVSLDLRPLEVRRGLRAQACAFWNRFLPKLLSATDTLDEAERQWKAEFHRWSSYMVHWKNQFDHYSKQDRCSDL
Consider B1, for which the “increase in cell viability upon AChE immunodepletion” value was ~ 1.45 fold.

(Values after paper PMC7714071, “Interaction of amyloid beta with humanin and acetylcholinesterase is modulated by ATP” (FEBS Open Bio, 2020).)
